This experiment addresses lectin-like oxidized LDL receptor 1 (LOX1) on bEnd.3 cells (mouse (endogenous in bEnd.3)) (UniProt Q9EQ09).
Sequence of UniProt Q9EQ09 (Q9EQ09 whole entry): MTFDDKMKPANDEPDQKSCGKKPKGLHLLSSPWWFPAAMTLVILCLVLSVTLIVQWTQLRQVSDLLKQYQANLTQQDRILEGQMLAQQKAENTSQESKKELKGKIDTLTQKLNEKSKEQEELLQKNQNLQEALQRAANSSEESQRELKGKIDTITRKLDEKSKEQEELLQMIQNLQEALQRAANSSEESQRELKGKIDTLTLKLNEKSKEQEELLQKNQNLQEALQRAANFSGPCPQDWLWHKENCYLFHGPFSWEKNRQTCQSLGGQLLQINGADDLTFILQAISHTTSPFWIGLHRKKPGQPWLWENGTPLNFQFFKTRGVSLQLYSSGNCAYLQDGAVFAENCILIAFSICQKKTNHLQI

Turning to “Acrolein-modified apolipoprotein E3 (acro-apoE3) (from UniProt P02649 19-317) (natural protein)”, the decrease in uptake of DiI-labeled acro-apoE3/rHDL (3 µg/mL) by bEnd.3 cells pre-treated with anti-LOX1 antibody came to 80 % decrease.

Source of the values: publication PMC6769588.
